Experimental findings from patent US20070282095A1 (published 2007) are described below.

The target of assay [1] is 77E203A205G thrombin (lysine 77 to glutamic acid, glycine 203 to alanine, serine 205 to glycine in B chain) (human, UniProt P00734 315-363; P00734 364-622). As to the kind of experiment: IAsys biosensor, FAST FIT program; derivative immobilized. How it is done: (§1) Subsequently, 0.2 ml of 1 M ethanol amine (pH 8) was added thereto to perform a blocking treatment.
Assay [2] addresses 203A205G thrombin (glycine at position 203 in B chain substituted by alanine, serine at position 205 … (human, UniProt P00734 315-363; P00734 364-622). The description is as above. How it is done: as §1

B1: fibrinogen (other)
chain 1: ADSGEGDFLAEGGGVRGPRVVERHQSACKDSDWPFCSDEDWNYKCPSGCRMKGLIDEVNQDFTNRINKLKNSLFEYQKNNKDSHSLTTNIMEILRGDFSSANNRDNTYNRVSEDLRSRIEVLKRKVIEKVQHIQLLQKNVRAQLVDMKRLEVDIDIKIRSCRGSCSRALAREVDLKDYEDQQKQLEQVIAKDLLPSRDRQHLPLIKMKPVPDLVPGNFKSQLQKVPPEWKALTDMPQMRMELERPGGNEITRGGSTSYGTGSETESPRNPSSAGSWNSGSSGPGSTGNRNPGSSGTGGTATWKPGSSGPGSTGSWNSGSSGTGSTGNQNPGSPRPGSTGTWNPGSSERGSAGHWTSESSVSGSTGQWHSESGSFRPDSPGSGNARPNNPDWGTFEEVSGNVSPGTRREYHTEKLVTSKGDKELRTGKEKVTSGSTTTTRRSCSKTVTKTVIGPDGHKEVTKEVVTSEDGSDCPEAMDLGTLSGIGTLDGFRHRHPDEAAFFDTASTGKTFPGFFSPMLGEFVSETESRGSESGIFTNTKESSSHHPGIAEFPSRGKSSSYSKQFTSSTSYNRGDSTFESKSYKMADEAGSEADHEGTHSTKRGHAKSRPV
chain 2: QGVNDNEEGFFSARGHRPLDKKREEAPSLRPAPPPISGGGYRARPAKAAATQKKVERKAPDAGGCLHADPDLGVLCPTGCQLQEALLQQERPIRNSVDELNNNVEAVSQTSSSSFQYMYLLKDLWQKRQKQVKDNENVVNEYSSELEKHQLYIDETVNSNIPTNLRVLRSILENLRSKIQKLESDVSAQMEYCRTPCTVSCNIPVVSGKECEEIIRKGGETSEMYLIQPDSSVKPYRVYCDMNTENGGWTVIQNRQDGSVDFGRKWDPYKQGFGNVATNTDGKNYCGLPGEYWLGNDKISQLTRMGPTELLIEMEDWKGDKVKAHYGGFTVQNEANKYQISVNKYRGTAGNALMDGASQLMGENRTMTIHNGMFFSTYDRDNDGWLTSDPRKQCSKEDGGGWWYNRCHAANPNGRYYWGGQYTWDMAKHGTDDGVVWMNWKGSWYSMRKMSMKIRPFFPQQ
chain 3: YVATRDNCCILDERFGSYCPTTCGIADFLSTYQTKVDKDLQSLEDILHQVENKTSEVKQLIKAIQLTYNPDESSKPNMIDAATLKSRKMLEEIMKYEASILTHDSSIRYLQEIYNSNNQKIVNLKEKVAQLEAQCQEPCKDTVQIHDITGKDCQDIANKGAKQSGLYFIKPLKANQQFLVYCEIDGSGNGWTVFQKRLDGSVDFKKNWIQYKEGFGHLSPTGTTEFWLGNEKIHLISTQSAIPYALRVELEDWNGRTSTADYAMFKVGPEADKYRLTYAYFAGGDAGDAFDGFDFGDDPSDKFFTSHNGMQFSTWDNDNDKFEGNCAEQDGSGWWMNKCHAGHLNGVYYQGGTYSKASTPNGYDNGIIWATWKTRWYSMKKTTMKIIPFNRLTIGEGQQHHLGGAKQAGDV
notes: also called Fbgn
With B1, the results for the Kd in assay [1] and in assay [2] were 190 nM and 10.8 nM, respectively.
